# Measurements taken from PMC11514458.
# T1: BCDX2 complex (human, UniProt O15315;O43502;O75771;O43543 1-384;1-376;1-328;1-280)
# T1 sequence 1: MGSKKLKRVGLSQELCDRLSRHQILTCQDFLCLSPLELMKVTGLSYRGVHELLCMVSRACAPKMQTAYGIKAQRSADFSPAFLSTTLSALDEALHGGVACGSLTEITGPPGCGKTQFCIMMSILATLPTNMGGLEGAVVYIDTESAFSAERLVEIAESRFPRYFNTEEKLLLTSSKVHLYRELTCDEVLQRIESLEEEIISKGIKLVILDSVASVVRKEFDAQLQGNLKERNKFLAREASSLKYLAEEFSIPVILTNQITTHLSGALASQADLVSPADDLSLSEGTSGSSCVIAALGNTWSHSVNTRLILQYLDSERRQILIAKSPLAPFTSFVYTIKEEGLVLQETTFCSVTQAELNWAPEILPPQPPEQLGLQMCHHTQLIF
# T1 sequence 2: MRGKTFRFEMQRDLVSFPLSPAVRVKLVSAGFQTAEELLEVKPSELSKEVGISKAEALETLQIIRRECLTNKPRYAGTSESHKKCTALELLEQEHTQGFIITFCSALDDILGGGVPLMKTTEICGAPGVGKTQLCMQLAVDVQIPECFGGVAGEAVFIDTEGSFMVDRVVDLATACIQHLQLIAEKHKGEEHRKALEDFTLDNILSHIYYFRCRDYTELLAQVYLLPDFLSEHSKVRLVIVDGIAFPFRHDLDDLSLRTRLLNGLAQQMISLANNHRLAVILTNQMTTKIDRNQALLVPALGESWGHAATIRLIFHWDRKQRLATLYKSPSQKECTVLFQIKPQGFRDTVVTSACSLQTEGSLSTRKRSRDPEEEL
# T1 sequence 3: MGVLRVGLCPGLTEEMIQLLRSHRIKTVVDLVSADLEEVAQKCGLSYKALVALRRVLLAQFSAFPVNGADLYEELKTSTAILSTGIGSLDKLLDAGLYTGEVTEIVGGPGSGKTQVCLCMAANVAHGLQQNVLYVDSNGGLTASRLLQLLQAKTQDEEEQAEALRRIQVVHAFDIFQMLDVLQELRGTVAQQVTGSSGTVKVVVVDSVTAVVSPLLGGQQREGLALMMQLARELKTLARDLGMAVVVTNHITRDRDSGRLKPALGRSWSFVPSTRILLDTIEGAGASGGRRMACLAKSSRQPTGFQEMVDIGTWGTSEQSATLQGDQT
# T1 sequence 4: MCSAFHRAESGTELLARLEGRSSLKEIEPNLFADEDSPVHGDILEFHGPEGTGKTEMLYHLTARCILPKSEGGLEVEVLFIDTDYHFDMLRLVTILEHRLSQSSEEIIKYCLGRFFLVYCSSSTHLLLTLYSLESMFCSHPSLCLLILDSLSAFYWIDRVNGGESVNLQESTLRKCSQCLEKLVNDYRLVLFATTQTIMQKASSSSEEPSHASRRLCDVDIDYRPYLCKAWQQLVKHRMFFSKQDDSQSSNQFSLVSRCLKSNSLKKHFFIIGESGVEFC
# B1: Cy3-dT43 (ssDNA)
# DNA: TTTTTTTTTTTTTTTTTTTTTTTTTTTTTTTTTTTTTTTTTTT
# What was measured:
# [1] = target: T1, BCDX2 complex; assay: stopped-flow fluorescence (global fit); initial complex k1/k-1; 2 mM ATP, 5 mM Mg2+; EMSA: 20 mM Tris-HCl pH 7.5, 2 mM MgCl2, 2 mM ATP, 37 C, 20 nM DNA, glutaraldehyde fixation; stopped-flow: 25 mM Tris-HCl pH 7.5, 5 mM MgCl2, 50 mM KCl, 2 mM ATP, 0.5 mM EDTA, 10% glycerol, 37 C; BLI: 50 mM Tris-HCl pH 7.5, 2 mM ATP, 50 mM KCl, 5 mM MgCl2, 0.05% Tween 20, room temperature; settings: protein: recombinant; tags: Strep-tag and His-tag (XRCC2 N-terminal His); copies: 1;1;1;1; label: Cy3 at 3' or 5'
# [2] = target: T2, RAD51 (UniProt Q06609 1-339); assay: stopped-flow fluorescence (global fit); RAD51 without BCDX2; ATP, Mg2+; EMSA: 20 mM Tris-HCl pH 7.5, 2 mM MgCl2, 2 mM ATP, 37 C, 20 nM DNA, glutaraldehyde fixation; stopped-flow: 25 mM Tris-HCl pH 7.5, 5 mM MgCl2, 50 mM KCl, 2 mM ATP, 0.5 mM EDTA, 10% glycerol, 37 C; BLI: 50 mM Tris-HCl pH 7.5, 2 mM ATP, 50 mM KCl, 5 mM MgCl2, 0.05% Tween 20, room temperature; settings: protein: recombinant; chain copies: 10; label: Cy3 at 3' or 5'
# T2 sequence (Q06609 whole entry): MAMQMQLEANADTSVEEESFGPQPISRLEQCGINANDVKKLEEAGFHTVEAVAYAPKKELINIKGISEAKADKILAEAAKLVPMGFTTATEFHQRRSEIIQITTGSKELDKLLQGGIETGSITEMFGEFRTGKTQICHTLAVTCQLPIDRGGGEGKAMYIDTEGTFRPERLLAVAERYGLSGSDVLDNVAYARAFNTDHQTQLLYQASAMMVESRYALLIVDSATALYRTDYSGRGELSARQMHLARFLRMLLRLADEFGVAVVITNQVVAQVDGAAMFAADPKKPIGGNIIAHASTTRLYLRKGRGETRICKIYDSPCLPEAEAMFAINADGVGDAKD
# [3] = target: T1, BCDX2 complex; assay: stopped-flow fluorescence (amplitude, A1); Kd,1 initial complex; ATP, Mg2+; EMSA: 20 mM Tris-HCl pH 7.5, 2 mM MgCl2, 2 mM ATP, 37 C, 20 nM DNA, glutaraldehyde fixation; stopped-flow: 25 mM Tris-HCl pH 7.5, 5 mM MgCl2, 50 mM KCl, 2 mM ATP, 0.5 mM EDTA, 10% glycerol, 37 C; BLI: 50 mM Tris-HCl pH 7.5, 2 mM ATP, 50 mM KCl, 5 mM MgCl2, 0.05% Tween 20, room temperature; settings: protein: recombinant; tags: Strep-tag and His-tag (XRCC2 N-terminal His); copies: 1;1;1;1; label: Cy3 at 3' or 5'
# [4] = target: T2, RAD51; assay: stopped-flow fluorescence (global fit); initial weak binding step; 2 mM ATP, 5 mM Mg2+; EMSA: 20 mM Tris-HCl pH 7.5, 2 mM MgCl2, 2 mM ATP, 37 C, 20 nM DNA, glutaraldehyde fixation; stopped-flow: 25 mM Tris-HCl pH 7.5, 5 mM MgCl2, 50 mM KCl, 2 mM ATP, 0.5 mM EDTA, 10% glycerol, 37 C; BLI: 50 mM Tris-HCl pH 7.5, 2 mM ATP, 50 mM KCl, 5 mM MgCl2, 0.05% Tween 20, room temperature; settings: protein: recombinant; chain copies: 10; label: Cy3 at 3' or 5'
# [5] = target: T1, BCDX2 complex; assay: stopped-flow fluorescence (total amplitude); Kd,net two-step; ATP, Mg2+; EMSA: 20 mM Tris-HCl pH 7.5, 2 mM MgCl2, 2 mM ATP, 37 C, 20 nM DNA, glutaraldehyde fixation; stopped-flow: 25 mM Tris-HCl pH 7.5, 5 mM MgCl2, 50 mM KCl, 2 mM ATP, 0.5 mM EDTA, 10% glycerol, 37 C; BLI: 50 mM Tris-HCl pH 7.5, 2 mM ATP, 50 mM KCl, 5 mM MgCl2, 0.05% Tween 20, room temperature; settings: protein: recombinant; tags: Strep-tag and His-tag (XRCC2 N-terminal His); copies: 1;1;1;1; label: Cy3 at 3' or 5'
# [6] = target: T2, RAD51; assay: stopped-flow fluorescence (Hill); Kd,1; ATP, Mg2+; EMSA: 20 mM Tris-HCl pH 7.5, 2 mM MgCl2, 2 mM ATP, 37 C, 20 nM DNA, glutaraldehyde fixation; stopped-flow: 25 mM Tris-HCl pH 7.5, 5 mM MgCl2, 50 mM KCl, 2 mM ATP, 0.5 mM EDTA, 10% glycerol, 37 C; BLI: 50 mM Tris-HCl pH 7.5, 2 mM ATP, 50 mM KCl, 5 mM MgCl2, 0.05% Tween 20, room temperature; settings: protein: recombinant; chain copies: 10; label: Cy3 at 3' or 5'
# [7] = target: RAD51;BCDX2 complex (human?;human, UniProt Q06609;O15315;O43502;O75771;O43543 1-339;1-384;1-376;1-328;1-280, |); assay: stopped-flow fluorescence (global fit); RAD51 binding in presence of BCDX2; ATP, Mg2+; EMSA: 20 mM Tris-HCl pH 7.5, 2 mM MgCl2, 2 mM ATP, 37 C, 20 nM DNA, glutaraldehyde fixation; stopped-flow: 25 mM Tris-HCl pH 7.5, 5 mM MgCl2, 50 mM KCl, 2 mM ATP, 0.5 mM EDTA, 10% glycerol, 37 C; BLI: 50 mM Tris-HCl pH 7.5, 2 mM ATP, 50 mM KCl, 5 mM MgCl2, 0.05% Tween 20, room temperature; settings: protein: recombinant;recombinant; tags: ;Strep-tag and His-tag (XRCC2 N-terminal His); copies: 1;1;1;1;1; label: Cy3 at 3' or 5'
# RAD51;BCDX2 complex, sequence (Q06609 whole entry, one chain of several): as the sequence (Q06609 whole entry) above
binder,measurement,setting,value
B1,Ka,[1],3.1 µM⁻¹
same,Ka,[2],0.026 nM⁻¹
same,Kd,[3],310 ± 50 nM
same,Ka,[4],0.09 µM⁻¹
same,Kd,[5],220 ± 20 nM
same,Kd,[6],1600 ± 200 nM
same,Ka,[7],0.064 nM⁻¹
